Consider seven molecules from US6362319B1, “Glial cell line-derived neurotrophic factor” (Amgen Inc., priority 1991, dated 2002).

Data set [1] concerns dopaminergic neurons in rat embryo (E16) mesencephalic cell cultures. The data set is described as follows: Bioassay for dopaminergic neurotrophic activity: 3H-dopamine uptake in dissociated mesencephalic cell cultures. In kind it is cell-based. The settings on record: for ED50 for increasing dopamine uptake: rat embryo (E16) mesencephalic culture; for SP. ACT (specific activity, dopamine uptake trophic units per protein): TU = reciprocal of dilution giving 50% of maximal stimulation of 3H-DA uptake; for FOLD (specific activity relative to B49 conditioned medium): purification fold over CM; for BIOACTIVITY: total trophic units at purification step. Here is the method: The dopaminergic activity of the GDNF is used to facilitate the purification process. […] Briefly, cultures of dissociated mesencephalic cells are prepared, either in serum rich or serum free environments. Samples to be tested for dopaminergic activity are desalted and serially added to the cell cultures and the dishes are incubated for 6 days at 37° C. in a humidified atmosphere containing 6.5% CO2. The cultures, in the presence of the testing material, are then incubated at 37° C. with tritiated dopamine (^3H-DA). The dopamine uptake is halted, the cells washed, and the dopamine uptake analyzed by scintillation counting of retained tritium in the cultures.
Culture conditions: Dissociated mesencephalic cell cultures were prepared as previously described (Friedman and Mytilineou 1987 Neurosci. Lett. 79:65-72), with minor modifications. Briefly, rostral mesencephalic tegmentum from brains of Sprague-Dawley rat embryos, at the 16th day of gestation, were dissected under the microscope in sterile conditions, collected in Ca^2+- and Mg^2+-free Dulbecco's phosphate buffered saline (Gibco, Gaithersburg, Md.) and dissociated mechanically by mild trituration. The cells were plated in 100 μl per well onto 16-mm diameter tissue culture wells (Falcon, Lincoln Park, N.J., 24-well plate) containing 400 μl medium to give a density of 2.5-3.5×10^5 cells per well. The culture wells had been previously exposed to 0.1 mg/ml solution of poly L-ornithine in 10 mM sodium borate, pH 8.4, for 3 hours at 37° C., washed 3 times in milli-Q H2O and once in Earle's balanced salt solution (Gibco). The feeding medium (10/10) consisted of minimal essential medium (MEM, Gibco) supplemented with glucose (33 mM), sodium bicarbonate (24.5 mM), glutamine (2 mM), HEPES (15 mM), penicillin G (5 U/ml), streptomycin (5 μg/ml), 10% heat-inactivated fetal calf serum (Gibco) and 10% heat inactivated horse serum (Gibco). The cultures were kept at 37° C. in a water-saturated atmosphere containing 6.5% CO2. After 3 hours, when most of the cells had adhered to the bottom of the well, the medium was replaced with 500 μl of fresh medium. At this time, a serial dilution of the sample to be assayed for GDNF activity was added to each well in duplicate and the plates were incubated in the 37° C. incubator. After a week, the cultures were treated for 24 hours with fluorodeoxyuridine (13 μg/ml) and uridine (33 μg/ml) to prevent excessive glial proliferation and subsequently fed with the above medium without fetal calf serum. The feeding medium was changed weekly.
Alternatively, chemically defined serum-free medium was used in which serum was replaced by a mixture of proteins; hormones and salts. The defined medium (DM) consisted of a mixture of MEM and F12 nutrient mixture (both Gibco, 1:1; vol/vol) with glucose (33 mM), glutamine (2 mM) NaHCO3 (24.5 mM), HEPES (15 mM), supplemented with transferrin (100 μg/ml), insulin (25 μg/ml), putrescine (60 μM), progesterone (20 nM), sodium selenite (30 nM), penicillin G (5 U/ml) and streptomycin (5 μg/ml). The osmolarity of the DM was adjusted to 325 by the addition of milli-Q H2O. (110-125 ml H2O/l). […] All assays reached in the following examples were done in serum-containing medium.
The functional status of the dopaminergic neurons may be assayed in these cultures by measuring dopamine uptake through specific “scavenger” transporters in the dopaminergic neurons and by counting the number of neurons positive for the dopamine synthetic enzyme tyrosine hydroxylase using immunohistochemistry.

The subject of data set [2] is sympathetic neurons from chick embryo sympathetic chain ganglia. The data set is described as follows: Neuronal survival assay (MTT), sympathetic chain ganglia. The format is cell-based. The settings on record: for fold lower than refolded rhGDNF in sympathetic neuron survival bioassay / apparent ED50 in the sympathetic neuron survival bioassay: prior to refolding; for apparent ED50 in the sympathetic neuron survival bioassay: exposed to 30 mM 2-mercaptoethanol. Here is the method:
Cultures of primary check embryo ciliary ganglia and sympathetic chain ganglia were prepared as previously described (Collins 1978 Develop. Biol. 65:50; Manthorpe et al. 1986 Develop. Brain Res. 25:191). Briefly, ciliary or sympathetic ganglia were removed from fertile, pathogen free chicken eggs that had been incubated for 8 and 10 days, respectively, at 38° C. in a humidified atmosphere. The ganglia were chemically dissociated by exposure first to Hands' Balanced Salt Solution without divalent cations, containing 10 mM HEPES buffer pH 7.2 for 10 min at 37° C., and then by exposure to a solution of 0.125% bactotrypsin 1:250 (Difco, Detroit, Mich.) in Hanks' Balanced Salt Solution modified as above for 12 min at 37° C. Trypsinization was stopped by addition of fetal calf serum to a final concentration of 10%.
After this treatment, ganglia were transferred to a solution consisting of Dulbecco's high glucose Modified Eagle Medium without bicarbonate containing 10% fetal calf serum and 10 mM HEPES, pH 7.2 and were mechanially dissociated by trituration approximately 10 times through a glass Pasteur pipet whose opening had been fire polished and constricted to a diameter such that it took 2 seconds to fill the pipet.
The dissociated ganglia were then plated in culture medium (Dulbecco's Modified Eagle Medium supplemented with 10% fetal calf serum, 4 mM glutamine, 60 mg/L penicillin-G, 25 mM HEPES, pH 7.2) in 100 mm diameter tissue culture dishes (40 dissociated ganglia per dish) for three hours. […] After three hours, the nonadherent nerve cells were collection by centrifugation, resuspended in culture medium, and plated in 50 μl per well onto half area 96 well microtiter tissue culture plates at a density of 1500 nerve cells per well. The microtiter wells had been previously exposed to a 1 mg/ml solution of poly-L-ornithine in 10 mM sodium borate, pH 8.4 overnight at 4° C., washed in distilled water and air dried.
Ten μl of a serial dilution of the sample to be assayed for neurotrophic activity was added to each well and the dishes were incubated for 20 hours at 37° C. in a humidified atmosphere containing 7.5% CO2. After 18 hours for ciliary and 40 hours for sympathetic ganglia, 15 μl per well of a 1.5 mg/ml solution of the tetrasolium dye MTT in Dulbecco's high glucose Modified Eagle Medium without bicarbonate containing 10 mM HEPES, pH 7.2, was added and the cultures placed in the 37° C. incubator for 4 hours. Then, 75 μl of a solution of 6.7 ml of 12 M HCl per liter of isopropanol was added and the contents of each well triturated 30 times to break open the cells and suspend the dye. The absorbance of 570 nm was determined relative to a 690 nm reference for each well using an automatic microtiter plate reader (Dynatech, Chantilly, Va.). The absorbance of wells which had not received any neurotrophic agent (negative controls) was substracted from the absorbance of sample-containing wells. The resulting absorbance is proportional to the number of living cells in each well, defined as those nerve cells capable of reducing the dye. The number of trophic units of neurotrophic activity was defined as the reciprocal of the dilution that gave 50% of maximal survival of nerve cells. Specific activity was determined by dividing the number of trophic units by the amount of protein present in the sample.

B1: refolded GDNF: recombinant mature human GDNF expressed in E. coli and refolded (protein)
chain: SNMPEDYPDQFDDVMDFIQATIKRLKRSPDKQMAVLPRRERNRQAAAANPENSRGKGRRGQRGKNRGCVLTAIHLNVTDLGLGYETKEELIFRYCSGSCDAAETTYDKILKNLSRNRRLVTDKVGQACCRPIAF
As to B1, the “bioactivity in dopamine uptake assay” value in data set [1] is reported as “fully active”. Besides, the “ED50 for increasing dopamine uptake” value in data set [1] was “about 3 pg/ml”; in data set [1] (listed as rhGDNF), “about 30 pg/ml”. In addition, the “bioactivity in sympathetic neuron survival bioassay” value in data set [2] is “fully active”. Moreover, the “ED50 for sympathetic neuron survival” value in data set [2] (chick embryo (E10) sympathetic ganglia) is listed as “about 3 ng/ml”.

B2: GDNF prior to refolding: E. coli-expressed human GDNF, exposed to 2-mercaptoethanol and purified by S- or Q-Sepharose, before refolding (protein, UniProt P39905 78-211, looked up)
Glial cell line-derived …: SPDKQMAVLPRRERNRQAAAANPENSRGKGRRGQRGKNRGCVLTAIHLNVTDLGLGYETKEELIFRYCSGSCDAAETTYDKILKNLSRNRRLVSDKVGQACCRPIAFDDDLSFLDDNLVYHILRKHSAKRCGCI
modifications: unrefolded, E. coli-expressed
As for B2, the “bioactivity in dopamine uptake assay” value in data set [1] is reported as “no detectable bioactivity”. Further, the “bioactivity in sympathetic neuron survival bioassay” value in data set [2] is on record as “greatly reduced bioactivity”.

B3: S-Sepharose chromatographed material: unrefolded human GDNF TU extract partially purified on S-Sepharose (protein, UniProt P39905 78-211, looked up)
Glial cell line-derived …: SPDKQMAVLPRRERNRQAAAANPENSRGKGRRGQRGKNRGCVLTAIHLNVTDLGLGYETKEELIFRYCSGSCDAAETTYDKILKNLSRNRRLVSDKVGQACCRPIAFDDDLSFLDDNLVYHILRKHSAKRCGCI
modifications: unrefolded, partially purified
For B3, in data set [2], the “fold lower than refolded rhGDNF in sympathetic neuron survival bioassay” value was “about 333 fold” and the “apparent ED50 in the sympathetic neuron survival bioassay” value is on record as “about 1 μg/ml”.

B4: 3. RP-HPLC: GDNF after first reverse-phase HPLC (protein, UniProt Q07731 78-211, looked up)
Glial cell line-derived …: SPDKQAAALPRRERNRQAAAASPENSRGKGRRGQRGKNRGCVLTAIHLNVTDLGLGYETKEELIFRYCSGSCEAAETMYDKILKNLSRSRRLTSDKVGQACCRPVAFDDDLSFLDDSLVYHILRKHSAKRCGCI
modifications: purification fraction
In the case of B4, in data set [1], the “SP. ACT (specific activity, dopamine uptake trophic units per protein)” value was 12,000 TU/μg; the “FOLD (specific activity relative to B49 conditioned medium)” value is 24,000; the BIOACTIVITY came to 12 TU × 10^−3.

B5: 4. Preparative SDS-PAGE: GDNF eluted from preparative non-reducing SDS-PAGE (protein, UniProt Q07731 78-211, looked up)
Glial cell line-derived …: SPDKQAAALPRRERNRQAAAASPENSRGKGRRGQRGKNRGCVLTAIHLNVTDLGLGYETKEELIFRYCSGSCEAAETMYDKILKNLSRSRRLTSDKVGQACCRPVAFDDDLSFLDDSLVYHILRKHSAKRCGCI
modifications: purification fraction
For B5, in data set [1], the BIOACTIVITY amounted to 7 TU × 10^−3.

B6: Q-Sepharose chromatographed material: unrefolded sulfonylated human GDNF extract partially purified on Q-Sepharose (protein, UniProt P39905 78-211, looked up)
Glial cell line-derived …: SPDKQMAVLPRRERNRQAAAANPENSRGKGRRGQRGKNRGCVLTAIHLNVTDLGLGYETKEELIFRYCSGSCDAAETTYDKILKNLSRNRRLVSDKVGQACCRPIAFDDDLSFLDDNLVYHILRKHSAKRCGCI
modifications: unrefolded, sulfonylated
For B6, in data set [2], the “fold lower than refolded rhGDNF in sympathetic neuron survival bioassay” value is “about 100 fold” and the “apparent ED50 in the sympathetic neuron survival bioassay” value is listed as “about 3 μg/ml”.

B7: 5. RP-HPLC: GDNF peak 3 after second reverse-phase HPLC (protein, UniProt Q07731 78-211, looked up)
Glial cell line-derived …: SPDKQAAALPRRERNRQAAAASPENSRGKGRRGQRGKNRGCVLTAIHLNVTDLGLGYETKEELIFRYCSGSCEAAETMYDKILKNLSRSRRLTSDKVGQACCRPVAFDDDLSFLDDSLVYHILRKHSAKRCGCI
modifications: purification fraction
notes: GDNF peak 3 after second reverse-phase HPLC
Take B7: in data set [1], the “SP. ACT (specific activity, dopamine uptake trophic units per protein)” value is 17,000 TU/μg; the “FOLD (specific activity relative to B49 conditioned medium)” value was 34,000; the BIOACTIVITY is recorded as 5 TU × 10^−3.
